Positions count from the first letter of the chain named.
B1: S1F4 scAb (scFv)
scFv: QVQLQESGPSLVKPSQTLSLTCTVSGFSLSSNSVGWVRQAPGKAPEWVAGIDTDGEEGYNPALNSRLSITRDTSKSQVSLSLSSVTSEDTAVYYCVRSYRADGLAYGYVQAIDYWGPGLLLTISSEGKSSGASGESKVDDQAVVTQPSSVSGSLGQRVSITCSGSFIGISSVGWFQQLPGSGLRTVIVASDGRPSGVPDRFSNSKSGNTATLTISSLQAEDEADYFCGSSDRTQYTGVFGSGTRLTVLG
notes: not shown: human C kappa domain and hexa-His tag of the scAb format
B2: CA12 scAb (scFv)
scFv: QVQLQGSGPSLVKPSQTLSLTCTVSGFSFDSYYVGWVRQAPGKALEWLGNIYSTGRAFYNPALKSRLSITRDTSKSQVSLSVSSVTIEDTALYYCVRGSYYHGGGNGMVDFFDYWSPGLLVTVSSEGKSSGASGESKVDDQVVRTQPSSVSGSLGQRVSITCSGSSSNVGYGNYVGWFQQVPGSAPKLLIYAATSRASGVPDRFSGSRSGNTATLTIDSLQAEDEADYYCSSYQRGNTGVFGSGTRLTVLG
notes: as for B1
B3: CE2 scAb (scFv)
scFv: QVQLQESGPSLVKPSQTLSLTCTVSGFSLTNYPVGWVRQAPGKALEWIGNIENDGSANYASALKSRLSITRDTSKNQVSLSLSSATTEDTAVYYCGREFGGSDGYTYFVDIDYWGPGLLVTVSSEGKSSGASGESKVDDQAVLTQPSSVSKSLGQSVSITCSGSSSNVGYGNYVSWFQQVPGSAPKILIYGATSRASGVPDRFSGSRSGNTATLTITSLQAEDEADYYCASYDGSSSGVFGSGTRLTVLG
notes: also called CE2/E1B8; not shown: human C kappa domain and hexa-His tag of the scAb format
B4: CA4 scAb (scFv)
scFv: QVQLQESGPSLVKPSQTLSLTCTVSGFSLTSYSVYWVRQAPGQALEWISIMYASGRVDYNPALKSRLSITRDTSKSQFSLSLSSVTTEDTAVYYCTRGIENWGPGLLVTVSSEGKSSGASGESKVDDDIQVTQSPSSLSASLTERVSITCRTSQSVNNYLSWYQQKPGQAPKLLIYYATRLYTDVPSRFSGSGSGTDYTLTITSLEADDTATYYCLQYDSTPLAFGGGTNVEIK
notes: as for B1
B5: S1G10 scAb (scFv)
scFv: B1 scFv with S30T, V96G, L121V, I123V, V144L, V150M, V186I, N203M
notes: as for B1
B6: S1B1 scAb (scFv)
scFv: B1 scFv with A101T, L121V, I123V, V144L
notes: as for B1
B7: S1E12 scAb (scFv)
scFv: B1 scFv with S30G, V96G, L121V, I123V, Q141R, A142V, V144R, V186I, N203M
notes: as for B1
B8: S2C6 scAb (scFv)
scFv: QVQLQESGPSLVKPSQTLSLTCTVSGFSLISNSVGWVRQAPGKAPEWVAGIDTDGEEGYNPALKSQYAASDPDTSKSQVSLSLSSVTSEDTAVYYCGRTYRTDGFAYGYVQAIDYWGPGLLLTISSEGKSSGASGESKVDDQAVLTQPSSVSGSLGQRVSITCSGSFIGISSVGWFQQLPGSGLRTIIVASDGRPSGVPDRFSMSKSGNTATLTISSLQAEDEADYFCGSSDRTQYTGVFGSGTRLTVLG
notes: as for B1
B9: CE3 scAb (scFv)
scFv: QVRLQESGPSLVKPSQTLSVTCTVSGFSLISNAVGWVRQAPGKVPESLAGCSSDGKCYYNSALKSRLDITRDTSKNQISLSLSSVTTDDAAVYYCTRGYYPVYGYDYLGTIDYWGPGLLVTVSSEGKSSGASGESKVDDQAVLTQPSSVSGSLGQRVSITCSGSSSNVGRNDVAWFQQLPGSGLRTIIYGTTSRPSGIPDRFSGSKSGVTATLTIDSLQAEDEADYFCASGDSSAINDIFGSGTRLTVLG
notes: as for B1
B10: CB2 scAb (scFv)
scFv: QVQLQESGPSLVKPSQTLSLTCTVSGFSLSTNSVGWVRQAPGKAPEWVAGIDTDGEEGFNPVLKSRLSITRDTSKSQVSLSLSNVTSEDTAVYYCGRSYRTDGLAYGYVQAIDYWGPGLLVTISSEGKSSGASGESKVDDQSVLTQPSSVSGSPGQTVSITCSGSYIGSSGVGWFQQLPGSGLRTIIVASDGRPSGVPDRFSMSKSGNTATLTISSLQAEDEADYFCGSSDRTQYTGLFGSGTRLTVLG
notes: as for B1
B11: S1D9 scAb (scFv)
scFv: QVQLQESGPSLVKPSQTLSLTCTVSGFSLTSNSVGWVRQAPGKAPEWVAGIDSDGEEGYNPALNSRLSITRDTSKNQVSLSLSRVTSEDTAVYYCGRTYRTDGYAYGYVQAIDYWGPGLLVTVSSEGKSSGASGESKVDDRVMLTQPPSVSGSPGQTVSITCSGSFIGISSVGWFQQLPGSGLRTVIFASDGRPSGVPDRFSNSKSGNTATLTISSLQAEDEADYFCGSSDRTQYTGVFGSGTRLTVLS
notes: as for B1
B12: CB7 scAb (scFv)
scFv: QVQLQESGPSLVKPSQTLSLTCTVSGFSLTNYRVGWVRQAPGKALEWVSNIRSGGTTWYNPALKSRLSITADTSKSQVSLSLSSVTTEDTAVYYCARDSSGDLYAYDYWGPGLLVTVSSEGKSSGASGESKVDDQAVLTQPSSVSRSLGQSVSMTCSGSSSNVGYGNYMAWFQQVPGSAPKLLIYGATSRASGVPDRFSGSRSGNTATLTISSLQAEDEADYYCASYDSTSGGVFGSGTRLTVLG
notes: as for B1
B13: CC7 scAb (scFv)
scFv: QVQLQESGPSLVKPSQTLSLTCTVSGFSLTSNAVIWVRQAPGKAPEWVALIDVDGDAAYDPALKSRLSITRDTSKSQVSLSLRSVTTEDTAVYYCARDYGSWGYVSDIDYWGPGLLVTVSSEGKSSGASGESKVDDRVVRTQPSSVSGSLGQRVSITCSGSYITGSSVGWFQQVPGSGLKTVIYDNNDRPSGVPDRFSGSKSGDTATLTISSLQAEDEADYYCASYDTSNIGLFGSGTRLTVLG
notes: as for B1
B14: 412E10 scAb (scFv)
scFv: QVQLQESGPSLVKPSQTLSLTCTVSGFSVISDSVAWVRQAPGKVPEWLGASGSSGNKYYNPALKSRLSITRDTSKSQVSLSLSSVTTEDTAVYYCARGIIAGVDVWGRGLLVTVSSEGKSSGASGESKVDDQAVLTQPSSVSGSLGQRVSITCSGSSSNVGYGNYVGWYQQVPGSAPKLLIYGTAIRASGVPDRFSGSRSGDTATLTITSLQAEDEADYYCASYQSNYAFFGSGTRLTVLG
notes: as for B1

biological target: T1, full length human tau protein (2N4R, isoform Tau-F, 441 amino acids) (human, UniProt P10636 1-758); assay: ELISA, hT40 coated, scAb titrated
T1 construct: also called hT40; htau40
T1 sequence (P10636 other isoform, or with tags, fused parts or gaps limits assumed): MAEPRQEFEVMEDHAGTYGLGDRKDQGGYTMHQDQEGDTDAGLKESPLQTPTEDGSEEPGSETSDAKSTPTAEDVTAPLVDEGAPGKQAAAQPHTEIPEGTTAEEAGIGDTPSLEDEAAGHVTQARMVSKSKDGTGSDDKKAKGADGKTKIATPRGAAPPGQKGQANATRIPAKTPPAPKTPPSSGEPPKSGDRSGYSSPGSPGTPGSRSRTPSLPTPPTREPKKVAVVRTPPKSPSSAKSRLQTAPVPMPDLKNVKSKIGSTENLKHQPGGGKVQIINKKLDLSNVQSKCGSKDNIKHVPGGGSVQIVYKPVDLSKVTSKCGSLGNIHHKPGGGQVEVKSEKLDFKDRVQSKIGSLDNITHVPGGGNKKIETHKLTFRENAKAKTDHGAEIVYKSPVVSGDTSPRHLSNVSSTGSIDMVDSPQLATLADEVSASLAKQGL

Row | Binder | EC50 (read off the curve)
1 | B1 | ~0.05 µg/mL
2 | B2 | ~0.02 µg/mL

biological target: T2, dGAE (tau 297-391) (human, UniProt P10636 614-708); assay: tau-tau immunoassay: scAb preincubated with 100 nM dGAE; blocked ligand: plate-bound dGA (1000 nM); bound dGAE detected with E2E8
T2 construct: also called dGAE95
T2 sequence (P10636 614-708 limits assumed): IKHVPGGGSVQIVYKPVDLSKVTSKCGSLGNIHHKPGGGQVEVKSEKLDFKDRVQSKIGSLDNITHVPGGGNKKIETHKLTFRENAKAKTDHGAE
Description: The adapted method is as follows: dGA (1000 nM) was adsorbed to a Nunc 96-well MaxiSorp plate and incubated for 1 h at 37° C. Plates were subsequently washed 3 times with PBST which was performed after each 1 h incubation. The plates were blocked with 2% (w/v) dried milk powder in PBS for 1 h at 37° C. […] The secondary antibody used was HRP-conjugated Anti-mouse IgG (1:1000 dilution, Sigma) and incubated at RT for 1 h. The plate was subsequently developed, and readings taken at absorbance 450 nm.

Row | Binder | B50
3 | B3 | 211 nM
4 | B4 | 221 nM
5 | B5 | 207 nM
6 | B6 | 101 nM
7 | B7 | 92 nM
8 | B8 | 51 nM
9 | B9 | 209 nM
10 | B10 | 93 nM
11 | B11 | 107 nM
12 | B2 | 59 nM

biological target: T1, full length human tau protein (2N4R, …); assay: sandwich ELISA, S1D12 mAb capture, hT40 titrated, detection scAb, chemiluminescent
Description: (§1) Full length tau (hT40), at 1 μg/ml starting concentration was added to designated wells and double diluted across rest of the plates and left to incubate at R/T for 1 h. A series of detection scAbs with varying epitope recognition properties were added at 10 μg/ml to designated wells (FIG. 22). For colourimetric detection HRP conjugated anti-HuCk secondary antibody was used and the resulting immunoreaction was developed and absorbance at 450 nm measured as described previously. Cut-off point for a positive binding event was an absorbance value of 0.3 following background subtraction. In order to enhance the assay sensitivity, a chemiluminescent detection method was adopted where 50 μL SuperSignal ELISA Femto Substrate (Thermo Scientific) was added to each well following incubation with anti-HuCK HRP antibody and subsequent washing. The luminescence was read using Clariostar Plus microplate reader. A further modification to this protocol was done where various detection scAbs were directly conjugated with HRP and detected using chemiluminescent protocol as before.

Row | Binder | LoD (ng/ml) chemiluminescence detection
13 | B4 | 0.37 ng/mL
14 | B5 | 0.12 ng/mL
15 | B12 | 3.33 ng/mL
16 | B13 | 3.33 ng/mL
17 | B14 | 0.37 ng/mL

biological target: T1, full length human tau protein (2N4R, …); assay: sandwich ELISA, S1D12 mAb capture, hT40 titrated, detection scAb at 10 ug/ml, colourimetric
Description: as §1

Row | Binder | LoD (ng/ml) colourimetric detection
18 | B4 | 6 ng/mL
19 | B5 | 2 ng/mL
20 | B12 | 15 ng/mL
21 | B13 | 6 ng/mL
22 | B14 | 20 ng/mL

Source: US20230257452A1 (GTINVENT, published 2023)
